In patent US12679878B2, “CRF2 receptor agonists and their use in therapy” (SANOFI, priority 2020, dated 2026):
Starred links: 1 amine or outer side, 2 acyl side, 3 side chain; linkers in the order of their positions; H or OH if unused. Non-standard residues stand in square brackets, D forms with d. Residues, ends and D or L forms follow the SMILES beside them. Groups on a side chain read outwards from the residue. No end group written: not given here. *: point of attachment. C18 diacid = O=C(O)CCCCCCCCCCCCCCCCC(=O)*; γGlu = O=C(O)[C@H](CCC(=O)[*:2])N[*:1]; Palmitoyl = CCCCCCCCCCCCCCCC(=O)*; AEEA = NCCOCCOCC(=O)O; Aib = CC(C)(N)C(=O)O

T1: human CRF2α receptor (Homo sapiens, UniProt Q13324)
T1 construct: expressed in transfected cells; host or cells: TeloHEAC
T1 sequence (Q13324 1-411): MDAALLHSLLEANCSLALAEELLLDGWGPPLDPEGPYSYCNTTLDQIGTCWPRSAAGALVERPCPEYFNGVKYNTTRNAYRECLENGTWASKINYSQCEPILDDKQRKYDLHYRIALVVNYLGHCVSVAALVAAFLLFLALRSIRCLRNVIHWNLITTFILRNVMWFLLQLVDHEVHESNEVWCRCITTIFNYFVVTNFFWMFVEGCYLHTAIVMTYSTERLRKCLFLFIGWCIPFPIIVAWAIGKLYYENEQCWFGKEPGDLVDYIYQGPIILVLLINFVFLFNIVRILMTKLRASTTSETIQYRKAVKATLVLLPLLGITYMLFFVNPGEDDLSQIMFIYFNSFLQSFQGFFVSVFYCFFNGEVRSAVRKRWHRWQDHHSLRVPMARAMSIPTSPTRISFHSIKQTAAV


Key:
human CRF2α receptor = molecular target: T1, human CRF2α receptor; test: cAMP agonism at human CRF2 α receptor in TeloHEAC cells (Example 7); assay type: cell-based; conditions: cAMP HTRF, TeloHEAC cells stably expressing human CRF2 α, 0% HSA; read-out: EC50 [nM], 0% HSA
Experimental: Agonism of compounds for human corticotropin-releasing factor 2α (CRF2 α receptor) was determined by functional assays measuring CAMP response of a TeloHEAC cell line stably expressing human CRF2 α receptor.
Cells were grown in a T175 culture flask placed at 37° C. to near confluence in medium (DMEM/10% FBS) and collected in 2 ml vials in cell culture medium containing 10% DMSO in a concentration of 10-50 million cells/ml. Each vial contained 1.8 ml cells. The vials were slowly frozen to −80° C. in isopropanol and then transferred in liquid nitrogen for storage. Prior to use, frozen cells were thawed quickly at 37° C. and washed (5 min at 900 rpm) with 20 ml cell buffer (1×HBSS; 20 mM HEPES; 0% or 0.1% HSA). Cells were resuspended in assay buffer (cell buffer plus 2 mM IBMX) and adjusted to a cell density of 1 million cells/ml. For measurement, 5 μl cells (final […]) and 5 μL of test compound were added to a 384-well plate, followed by incubation for 30 minutes at room temperature.
The CAMP content of cells was determined using a kit from Cisbio Corp. (cat. no. 62AM4PEC) based on HTRF (Homogenous Time Resolved Fluorescence). After addition of HTRF reagents diluted in lysis buffer (kit components), the plates were incubated for 1 h, followed by measurement of the fluorescence ratio at 665/620 nm. The percent activity value (E %) was calculated by setting 1000 nM of urocortin 2 (UCN2) as 100%. The in vitro potency of the compounds was quantified by determining the concentrations that caused 50% activation of maximal response (EC50).

[1] = molecular target: human corticotropin-releasing factor 2α (CRF2 α receptor) (human), Q13324; test: cell-based or functional assay

Molecule | EC50 (human CRF2α receptor) [nM] | EC50 [nM], 0% HSA [1] [nM] | EC50 [nM], 0.1% HSA [1] [nM]
CCCCCCCCCCCCCCCC(=O)N[C@@H](CCC(=O)NCCCC[C@H](NC(=O)[C@H](CC(C)C)NC(=O)CNC(=O)[C@@H](NC(=O)[C@@H]1CCCN1C(=O)[C@@H](NC(=O)[C@H](CC(=O)O)NC(=O)[C@H](CC(C)C)NC(=O)[C@H](CO)NC(=O)[C@H](CC(C)C)NC(=O)[C@@H](NC(=O)[C@@H](N)[C@@H](C)CC)C(C)C)C(C)C)[C@@H](C)CC)C(=O)N[C@@H](CCC(N)=O)C(=O)N[C@H](C(=O)N[C@@H](CC(C)C)C(=O)N[C@@H](CC(C)C)C(=O)N[C@@H](CCC(=O)O)C(=O)N[C@@H](CCC(N)=O)C(=O)N[C@@H](CCC(=O)O)C(=O)N[C@@H](CCCCN)C(=O)N[C@@H](CCC(N)=O)C(=O)N[C@@H](CCC(=O)O)C(=O)N[C@@H](CCCCN)C(=O)N[C@@H](CCC(=O)O)C(=O)N[C@@H](CCCCN)C(=O)N[C@@H](CCC(N)=O)C(=O)N[C@@H](CCC(N)=O)C(=O)N[C@@H](C)C(=O)N[C@@H](CCC(=O)O)C(=O)N[C@H](C(=O)N[C@@H](CC(N)=O)C(=O)N[C@@H](C)C(=O)N[C@@H](CCC(N)=O)C(=O)N[C@H](C(=O)N[C@@H](CC(C)C)C(=O)N[C@@H](C)C(=O)N[C@@H](CCC(N)=O)C(=O)N[C@H](C(N)=O)C(C)C)[C@@H](C)CC)[C@@H](C)O)[C@@H](C)CC)C(=O)O [compound 1] (H-IVLSLDVPIGLK([γGlu-Palmitoyl])QILLEQEKQEKEKQQAETNAQILAQV-NH2; N-terminus assumed) | 0.01 | – | –
CCCCCCCCCCCCCCCC(=O)N[C@@H](CCC(=O)NCCCC[C@H](NC(=O)[C@H](CC(C)C)NC(=O)[C@H](CCCCN)NC(=O)[C@@H](NC(=O)[C@@H]1CCCN1C(=O)[C@H](NC(=O)[C@H](CC(=O)O)NC(=O)[C@H](CC(C)C)NC(=O)[C@H](CO)NC(=O)[C@H](CC(C)C)NC(=O)[C@@H](NC(=O)[C@@H](N)[C@@H](C)CC)C(C)C)C(C)C)[C@@H](C)O)C(=O)N[C@@H](CCC(N)=O)C(=O)N[C@@H](CCCCN)C(=O)N[C@@H](CC(C)C)C(=O)N[C@@H](CC(C)C)C(=O)N[C@@H](CCCCN)C(=O)N[C@@H](CCC(N)=O)C(=O)N[C@@H](CCC(=O)O)C(=O)N[C@@H](CCCNC(=N)N)C(=O)N[C@@H](CCC(N)=O)C(=O)N[C@@H](CCCNC(=N)N)C(=O)N[C@@H](CCCCN)C(=O)N[C@@H](CCC(=O)O)C(=O)N[C@@H](CCCNC(=N)N)C(=O)N[C@@H](CCC(=O)O)C(=O)N[C@@H](CCC(N)=O)C(=O)N[C@@H](C)C(=O)N[C@@H](CCC(=O)O)C(=O)N[C@@H](CCCCN)C(=O)N[C@@H](CC(N)=O)C(=O)NC(C)(C)C(=O)N[C@@H](CCCNC(=N)N)C(=O)N[C@H](C(=O)N[C@@H](CC(C)C)C(=O)N[C@@H](CCC(=O)O)C(=O)N[C@@H](CCCNC(=N)N)C(=O)N[C@H](C(N)=O)C(C)C)[C@@H](C)CC)C(=O)O [compound 31] (H-IVLSLD[dV]PTKLK([γGlu-Palmitoyl])QKLLKQERQRKEREQAEKN[Aib]RILERV-NH2; N-terminus assumed) | 0.01 | – | –
CCCCCCCCCCCCCCCC(=O)N[C@@H](CCC(=O)NCCCC[C@H](NC(=O)[C@H](CC(C)C)NC(=O)[C@H](CCCCN)NC(=O)[C@@H](NC(=O)[C@@H]1CCCN1C(=O)[C@H](NC(=O)[C@H](CC(=O)O)NC(=O)[C@H](CC(C)C)NC(=O)[C@H](CO)NC(=O)[C@H](CC(C)C)NC(=O)[C@@H](NC(=O)[C@@H](N)[C@@H](C)CC)C(C)C)C(C)C)[C@@H](C)O)C(=O)N[C@@H](CCC(N)=O)C(=O)N[C@@H](CCCCN)C(=O)N[C@@H](CC(C)C)C(=O)N[C@@H](CC(C)C)C(=O)N[C@@H](CCCCN)C(=O)N[C@@H](CCC(N)=O)C(=O)N[C@@H](CCC(=O)O)C(=O)N[C@@H](CCCNC(=N)N)C(=O)N[C@@H](CCC(N)=O)C(=O)N[C@@H](CCCNC(=N)N)C(=O)N[C@@H](CCCCN)C(=O)N[C@@H](CCC(=O)O)C(=O)N[C@@H](CCCNC(=N)N)C(=O)N[C@@H](CCC(=O)O)C(=O)N[C@@H](CCC(N)=O)C(=O)N[C@@H](C)C(=O)N[C@@H](CCC(=O)O)C(=O)N[C@@H](CCCCN)C(=O)N[C@@H](CC(N)=O)C(=O)N[C@H](C(=O)N[C@@H](CCCNC(=N)N)C(=O)N[C@H](C(=O)N[C@@H](CC(C)C)C(=O)N[C@@H](CCC(=O)O)C(=O)N[C@@H](CCCNC(=N)N)C(=O)N[C@H](C(N)=O)C(C)C)[C@@H](C)CC)[C@@H](C)O)C(=O)O [compound 33] (H-IVLSLD[dV]PTKLK([γGlu-Palmitoyl])QKLLKQERQRKEREQAEKNTRILERV-NH2) | 0.2 | – | –
IVLSLD[dV]PIGLK([AEEA-AEEA-γGlu-C18 diacid])QILLKQERQKK[Aib]REQAETNKRILERV-NH2 (N-terminus assumed; SMILES CC[C@H](C)[C@H](N)C(=O)N[C@H](C(=O)N[C@@H](CC(C)C)C(=O)N[C@@H](CO)C(=O)N[C@@H](CC(C)C)C(=O)N[C@@H](CC(=O)O)C(=O)N[C@@H](C(=O)N1CCC[C@H]1C(=O)N[C@H](C(=O)NCC(=O)N[C@@H](CC(C)C)C(=O)N[C@@H](CCCCNC(=O)COCCOCCNC(=O)COCCOCCNC(=O)CC[C@H](NC(=O)CCCCCCCCCCCCCCCCC(=O)O)C(=O)O)C(=O)N[C@@H](CCC(N)=O)C(=O)N[C@H](C(=O)N[C@@H](CC(C)C)C(=O)N[C@@H](CC(C)C)C(=O)N[C@@H](CCCCN)C(=O)N[C@@H](CCC(N)=O)C(=O)N[C@@H](CCC(=O)O)C(=O)N[C@@H](CCCNC(=N)N)C(=O)N[C@@H](CCC(N)=O)C(=O)N[C@@H](CCCCN)C(=O)N[C@@H](CCCCN)C(=O)NC(C)(C)C(=O)N[C@@H](CCCNC(=N)N)C(=O)N[C@@H](CCC(=O)O)C(=O)N[C@@H](CCC(N)=O)C(=O)N[C@@H](C)C(=O)N[C@@H](CCC(=O)O)C(=O)N[C@H](C(=O)N[C@@H](CC(N)=O)C(=O)N[C@@H](CCCCN)C(=O)N[C@@H](CCCNC(=N)N)C(=O)N[C@H](C(=O)N[C@@H](CC(C)C)C(=O)N[C@@H](CCC(=O)O)C(=O)N[C@@H](CCCNC(=N)N)C(=O)N[C@H](C(N)=O)C(C)C)[C@@H](C)CC)[C@@H](C)O)[C@@H](C)CC)[C@@H](C)CC)C(C)C)C(C)C) [SEQ ID NO: 83] | – | 0.07 | 2.99
IVLSLDVPIKLK([AEEA-AEEA-γGlu-C18 diacid])QKLLEQEKQKKQREQAETNKQILAQV-NH2 (N-terminus assumed; SMILES CC[C@H](C)[C@H](N)C(=O)N[C@H](C(=O)N[C@@H](CC(C)C)C(=O)N[C@@H](CO)C(=O)N[C@@H](CC(C)C)C(=O)N[C@@H](CC(=O)O)C(=O)N[C@H](C(=O)N1CCC[C@H]1C(=O)N[C@H](C(=O)N[C@@H](CCCCN)C(=O)N[C@@H](CC(C)C)C(=O)N[C@@H](CCCCNC(=O)COCCOCCNC(=O)COCCOCCNC(=O)CC[C@H](NC(=O)CCCCCCCCCCCCCCCCC(=O)O)C(=O)O)C(=O)N[C@@H](CCC(N)=O)C(=O)N[C@@H](CCCCN)C(=O)N[C@@H](CC(C)C)C(=O)N[C@@H](CC(C)C)C(=O)N[C@@H](CCC(=O)O)C(=O)N[C@@H](CCC(N)=O)C(=O)N[C@@H](CCC(=O)O)C(=O)N[C@@H](CCCCN)C(=O)N[C@@H](CCC(N)=O)C(=O)N[C@@H](CCCCN)C(=O)N[C@@H](CCCCN)C(=O)N[C@@H](CCC(N)=O)C(=O)N[C@@H](CCCNC(=N)N)C(=O)N[C@@H](CCC(=O)O)C(=O)N[C@@H](CCC(N)=O)C(=O)N[C@@H](C)C(=O)N[C@@H](CCC(=O)O)C(=O)N[C@H](C(=O)N[C@@H](CC(N)=O)C(=O)N[C@@H](CCCCN)C(=O)N[C@@H](CCC(N)=O)C(=O)N[C@H](C(=O)N[C@@H](CC(C)C)C(=O)N[C@@H](C)C(=O)N[C@@H](CCC(N)=O)C(=O)N[C@H](C(N)=O)C(C)C)[C@@H](C)CC)[C@@H](C)O)[C@@H](C)CC)C(C)C)C(C)C) [SEQ ID NO: 84] | – | 1.85 | 61.7
